B1: SAK42D (mature native staphylokinase of S. aureus phage 42D, expressed free of signal peptide in E. coli TG1(pMEX602sak)) (other)
chain: SSSFDKGKYKKGDDASYFEPTGPYLMVNVTGVDGKRNELLSPRYVEFPIKPGTTLTKEKIEYYVEWALDATAYKEFRVVELDPSAKIEVTYYDKNKKKEETKSFPITEKGFVVPDLSEHIKNPGFNLITKVVIEKK
B2: N10ΔSAK42D (SAK42D shortened by 10 amino acids at the N-terminus) (other)
chain: KGDDASYFEPTGPYLMVNVTGVDGKRNELLSPRYVEFPIKPGTTLTKEKIEYYVEWALDATAYKEFRVVELDPSAKIEVTYYDKNKKKEETKSFPITEKGFVVPDLSEHIKNPGFNLITKVVIEKK
B3: N14ΔSAK42D (SAK42D shortened by 14 amino acids at the N-terminus) (other)
chain: ASYFEPTGPYLMVNVTGVDGKRNELLSPRYVEFPIKPGTTLTKEKIEYYVEWALDATAYKEFRVVELDPSAKIEVTYYDKNKKKEETKSFPITEKGFVVPDLSEHIKNPGFNLITKVVIEKK

Biological target: plasminogen (species not stated)
Test: not given

Going from SAKM26C (artificial allelic SAK form) to SAKM26L (artificial allelic SAK form), the specific activity in µmol plasmin/(µmol SAK × min) (µmol plasmin/(µmol SAK × min)) rises from 21.1 to 36.6.

Compared with “N10ΔSAK42D (SAK42D shortened by 10 amino acids at the N-terminus)”, “N14ΔSAK42D (SAK42D shortened by 14 amino acids at the N-terminus)” is lower in specific activity in µmol plasmin/(µmol SAK × min) (µmol plasmin/(µmol SAK × min)): 22.7 for the first, 8.1 for the second.

“SAK42D (mature native staphylokinase of S. aureus phage 42D, expressed free of signal peptide in E. coli TG1(pMEX602sak)) (from UniProt P15240)” gave a specific activity in µmol plasmin/(µmol SAK × min) (µmol plasmin/(µmol SAK × min)) of 16.2.

Biological target: human plasminogen, isolated from human plasma and immobilized on Protein-Pak epoxy-activated carrier (human, UniProt P00747)
Test: analytical affinity chromatography on immobilized human plasminogen, 16° C.

B1 and B2 are within 1.5-fold of each other in Kd: 1480 nM for the first, 2210 nM for the second.

With B3 the Kd was 4400 nM.
